Numbering of substitutions follows the chain as printed.
Legend:
[1] = target: T1, human FGFR1b-IIIc extracellular domain with a HIS tag (human, UniProt P11362 22-376); experiment: ELISA, antibody titrated on huFGFR1b-IIIc, O.D. 450 nm [panel huFGFR1b-IIIc]
T1 construct: also called huFGFR1b-IIIc; hFGFR1b-IIIc
T1 sequence: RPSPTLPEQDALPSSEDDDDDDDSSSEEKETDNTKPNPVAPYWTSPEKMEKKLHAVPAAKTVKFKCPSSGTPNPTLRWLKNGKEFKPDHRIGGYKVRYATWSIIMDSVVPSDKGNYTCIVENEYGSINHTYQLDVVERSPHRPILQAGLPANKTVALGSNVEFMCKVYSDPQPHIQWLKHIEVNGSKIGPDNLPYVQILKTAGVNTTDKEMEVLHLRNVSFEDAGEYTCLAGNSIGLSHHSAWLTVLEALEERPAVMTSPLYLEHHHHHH

[2] = target: T2, muFGFR1a-IIIc (mouse, UniProt P16092 22-376); experiment: SPR (Biacore 4000), antibody captured, His-tagged FGFR1 injected; no unit in the table, nM inferred from paragraph 90
T2 construct: Bought, His6 tag; also called mouse FGFR1a-IIIc His6-tagged; murine FGFR1a-IIIc
T2 sequence (looked up): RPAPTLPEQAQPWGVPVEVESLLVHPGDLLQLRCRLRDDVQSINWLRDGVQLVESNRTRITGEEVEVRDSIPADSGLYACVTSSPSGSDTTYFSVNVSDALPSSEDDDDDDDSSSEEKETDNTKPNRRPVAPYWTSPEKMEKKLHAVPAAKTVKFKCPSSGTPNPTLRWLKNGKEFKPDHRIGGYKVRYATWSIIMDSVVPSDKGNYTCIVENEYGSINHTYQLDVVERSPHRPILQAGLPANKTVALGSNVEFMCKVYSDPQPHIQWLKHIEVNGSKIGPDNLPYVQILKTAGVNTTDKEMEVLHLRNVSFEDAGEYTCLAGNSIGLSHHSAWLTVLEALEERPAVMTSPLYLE
Protocol: Binding affinities of anti-FGFR1 antibodies to FGFR1 were measured by Surface Plasmon Resonance (SPR) using a GE Healthcare BIAcore 4000 instrument as follows. Goat anti-human Fc antibody (Jackson ImmunoResearch Laboratories #109-005-098) was first immobilized on BIAcore carboxymethylated dextran CM5 chip using direct coupling to free amino groups following the procedure described by the manufacturer. Antibodies were then captured on the CM5 biosensor chip to achieve approximately 200 response units (RU). Binding measurements were performed using the running HBS-EP+ buffer. A 2-fold dilution series of His-tagged FGFR1 proteins were injected at a flow rate of 30 μl/min at 25° C. Association rates (kₒₙ, per mol/s) and dissociation rates (koff, per s) were calculated using a simple 1:1 Langmuir binding model (Biacore 4000 Evaluation Software). The equilibrium dissociation constant (KD, mol) was calculated as the ratio of koff/kₒₙ.

[3] = target: T3, FGFR1 D2 point mutant Y98A (human, UniProt P11362 22-254); experiment: SPR as in Example 1.8
T3 chain: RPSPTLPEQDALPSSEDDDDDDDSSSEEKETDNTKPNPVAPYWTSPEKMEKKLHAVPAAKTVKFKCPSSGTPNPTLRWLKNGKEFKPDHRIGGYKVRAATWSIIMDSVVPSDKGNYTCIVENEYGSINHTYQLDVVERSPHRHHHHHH
Procedure, shortened: (§1)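 Anti-FGFR1 mAb captured via immobilised anti-human Fc to ~200 RU; 2-fold dilutions of His-tagged FGFR1 (wild-type or HEK-expressed point mutants, Ala→Gly for native Ala) injected at 25° C in HBS-EP+. kon/koff from 1:1 Langmuir fit; KD = koff/kon.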

[4] = target: T4, FGFR1 D2 point mutant A58G (human, UniProt P11362 22-254); experiment: SPR as in Example 1.8
T4 chain: T3 chain with A58G, A98Y
Procedure, shortened: as §1

[5] = target: T5, FGFR1 D2 point mutant I104A (human, UniProt P11362 22-254); experiment: SPR as in Example 1.8
T5 chain: T3 chain with A98Y, I104A
Procedure, shortened: as §1

[6] = target: T6, FGFR1 D2 point mutant K48A (human, UniProt P11362 22-254); experiment: SPR as in Example 1.8
T6 chain: T3 chain with K48A, A98Y
Procedure, shortened: as §1

[7] = target: T7, FGFR1 D2 point mutant K51A (human, UniProt P11362 22-254); experiment: SPR as in Example 1.8
T7 chain: T3 chain with K51A, A98Y
Procedure, shortened: as §1

[8] = target: T1, human FGFR1b-IIIc extracellular domain …; experiment: SPR as in Example 1.8
Procedure, shortened: as §1

B1: mAb #A08 (antibody, V domains shown)
VH: EVQLQESGPGLVKPSGTLSLTCAVSGGSISSNNWWSWVRQPPGKGLEWIGEIYHSGSTSYNPSLKSRVTISVDKSKNQFSLKLNSVTAADTAVYYCARGTDWFDPWGQGTLVTVSS
VL: QAVLTQPPSVSVAPGQTARITCGGNNIGSESVHWYQQKPGQAPVLVVYDDSDRPSGIPERFSGSNSGNTATLTISRVEAGDEADYYCQVWDSTSDHRVFGGGTKLTVL
notes: Only variable domains are tied to the name mAb #A08 (hit); also called #A08 hit; mAb #08
EC50 (read off the curve) [1]: ~0.03 nM
Kd [2]: 2.3 nM
Kd [3]: 0.18 nM
Kd [4]: 2.2 nM
Kd [5]: 0.93 nM
Kd [6]: 0.09 nM
Kd [7]: 0.31 nM
Kd [8]: 0.48 nM

From patent US20190367620A1 (Merck KGaA, published 2019)
